Substrate in series [1]: CCOc1cc(NS(C)(=O)=O)c(OCC)cc1CNC(=O)Nc1ccc(OC)cc1
The settings on record: Homo sapiens; 0.1 uM.
Description: Inhibition of recombinant PTP1B (unknown origin) using pNPP as substrate assessed as enzyme Km at 0.1 uM after 30 mins by Michaelis-Menten plot analysis

Substrate in series [2]: CCOc1cc(NS(C)(=O)=O)c(OCC)cc1CNC(=O)Nc1ccc(OC)cc1
To be noted: Homo sapiens; 0.2 uM.
Description: Inhibition of recombinant PTP1B (unknown origin) using pNPP as substrate assessed as enzyme Km at 0.2 uM after 30 mins by Michaelis-Menten plot analysis

Substrate in series [3]: CCOc1cc(NS(C)(=O)=O)c(OCC)cc1CNC(=O)Nc1ccc(OC)cc1
To be noted: Homo sapiens; 0.4 uM.
Description: Inhibition of recombinant PTP1B (unknown origin) using pNPP as substrate assessed as enzyme Km at 0.4 uM after 30 mins by Michaelis-Menten plot analysis

Substrate in series [4]: CCOc1cc(NS(C)(=O)=O)c(OCC)cc1CNC(=O)Nc1ccc(OC)cc1
The settings on record: Homo sapiens; 0.8 uM.
Description: Inhibition of recombinant PTP1B (unknown origin) using pNPP as substrate assessed as enzyme Km at 0.8 uM after 30 mins by Michaelis-Menten plot analysis

Substrate in series [5]: CCOc1cc(NS(C)(=O)=O)c(OCC)cc1CNC(=O)Nc1ccc(OC)cc1
The settings on record: Homo sapiens; 0.1 uM. The source holds these as a separate data set.
Description: Inhibition of recombinant PTP1B (unknown origin) using pNPP as substrate assessed as enzyme Vmax at 0.1 uM after 30 mins by Michaelis-Menten plot analysis

Substrate in series [6]: CCOc1cc(NS(C)(=O)=O)c(OCC)cc1CNC(=O)Nc1ccc(OC)cc1
To be noted: Homo sapiens; 0.2 uM. The source holds these as a separate data set.
Description: Inhibition of recombinant PTP1B (unknown origin) using pNPP as substrate assessed as enzyme Vmax at 0.2 uM after 30 mins by Michaelis-Menten plot analysis

Substrate in series [7]: CCOc1cc(NS(C)(=O)=O)c(OCC)cc1CNC(=O)Nc1ccc(OC)cc1
The settings on record: Homo sapiens; 0.4 uM. This is another data set of the same source.
Description: Inhibition of recombinant PTP1B (unknown origin) using pNPP as substrate assessed as enzyme Vmax at 0.4 uM after 30 mins by Michaelis-Menten plot analysis

Substrate in series [8]: CCOc1cc(NS(C)(=O)=O)c(OCC)cc1CNC(=O)Nc1ccc(OC)cc1
Description: Inhibition of recombinant PTP1B (unknown origin) using pNPP as substrate assessed as enzyme Vmax at 0.8 uM after 30 mins by Michaelis-Menten plot analysis
To be noted: Homo sapiens; 0.8 uM. This is another data set of the same source.

B1: Tyrosine-protein phosphatase non-receptor type 1 (Homo sapiens), P18031 (protein)
chain: MEMEKEFEQIDKSGSWAAIYQDIRHEASDFPCRVAKLPKNKNRNRYRDVSPFDHSRIKLHQEDNDYINASLIKMEEAQRSYILTQGPLPNTCGHFWEMVWEQKSRGVVMLNRVMEKGSLKCAQYWPQKEEKEMIFEDTNLKLTLISEDIKSYYTVRQLELENLTTQETREILHFHYTTWPDFGVPESPASFLNFLFKVRESGSLSPEHGPVVVHCSAGIGRSGTFCLADTCLLLMDKRKDPSSVDIKKVLLEMRKFRMGLIQTADQLRFSYLAVIEGAKFIMGDSSVQDQWKELSHEDLEPPPEHIPPPPRPPKRILEPHNGKCREFFPNHQWVKEETQEDKDCPIKEEKGSPLNAAPYGIESMSQDTEVRSRVVGGSLRGAQAASPAKGEPSLPEKDEDHALSYWKPFLVNMCVATVLTAGAYLCYRFLFNSNT
As for B1, the Km in series [1] stood at 2.96 mM; in series [2] it was 3.89 mM; in series [3], 4.52 mM; in series [4], 7.32 mM. Besides, the Vmax (milli optical density/minute) was found to be 58.3 in series [5], 54.8 in series [6], 48.9 in series [7] and 52.5 in series [8].
